Columns and labels:
Experiment in all cases: BLI; Forte Bio Octet; biotinylated Mm IgG or Fc captured on streptavidin SAX 2.0 tips, FcγRIII in solution in 3-fold serial dilutions (10 mM to 0.013 mM [sic]), PBST (0.05% Tween-PBS), 300 s association and 300 s dissociation; KD from equilibrium fits, average of two independent experiments; the footnote of Table 1 says SPR
[1] = target: Fc of Mm IgG3 (Macaca mulatta (rhesus macaque))
[2] = target: macaque immunoglobulin IgG1 Fc (residues 237-447) (Macaca mulatta (rhesus macaque))
[3] = target: Mm IgG2 (Macaca mulatta (rhesus macaque))
[4] = target: Mm IgG1 (Macaca mulatta (rhesus macaque))
[5] = target: Mm IgG3 (Macaca mulatta (rhesus macaque))
[6] = target: Mm IgG4 (Macaca mulatta (rhesus macaque))
[7] = target: Fc of Mm IgG2 (Macaca mulatta (rhesus macaque))
[8] = target: Fc of Mm IgG4 (Macaca mulatta (rhesus macaque))

Q: With “Mm FcγRIII(Ile^158), fully glycosylated, Man5 glycans (from UniProt A3RFZ7 21-206) (receptor)” as the substance, how does the Kd [1] read?
A: The Kd was 290 nM.

Q: What about the Kd [2] of the same substance?
A: Its Kd is 210 nM.

Q: And the Kd [3]?
A: The Kd was 1500 nM.

Q: And the Kd [4]?
A: Its Kd is 220 nM.

Q: What about the Kd [5] of the same substance?
A: The Kd was 1900 nM.

Q: What about the Kd [6] of the same substance?
A: Its Kd is 490 nM.

Q: And the Kd [7]?
A: The Kd was 150 nM.

Q: And the Kd [8]?
A: Its Kd is 1100 nM.

Q: Which results are given for “Mm FcγRIII(Ile^158), fully glycosylated, complex glycans (from UniProt A3RFZ7 21-206) (receptor)”?
A: Kd [1]: 400 nM; Kd [2]: 250 nM; Kd [3]: 1800 nM; Kd [4]: 260 nM; Kd [5]: 1900 nM; Kd [6]: 980 nM; Kd [7]: 230 nM; Kd [8]: 1800 nM

Q: With “Mm FcγRIII(Ile^158), partial glycosylation (Asn^38 and Asn^169 glycans removed), Man5 glycans (receptor)” as the substance, how does the Kd [1] read?
A: Its Kd is 160 nM.

Q: And the Kd [2]?
A: The Kd was 60 nM.

Q: And the Kd [3]?
A: Its Kd is 2800 nM.

Q: And the Kd [4]?
A: Its Kd is 280 nM.

Q: And the Kd [5]?
A: Its Kd is 3000 nM.

Q: And the Kd [6]?
A: Its Kd is 1700 nM.

Q: What about the Kd [7] of the same substance?
A: The Kd was 1500 nM.

Q: And the Kd [8]?
A: The Kd was 1900 nM.

Q: What does the source list for “Mm FcγRIII(Ile^158), partial glycosylation (Asn^38 and Asn^169 glycans removed), complex glycans (receptor)”?
A: Kd [1]: 230 nM; Kd [2]: 120 nM; Kd [3]: 2300 nM; Kd [4]: 340 nM; Kd [5]: 2800 nM; Kd [6]: 2300 nM; Kd [7]: 1600 nM; Kd [8]: 2200 nM

Q: How did the Kd [1] turn out when “Mm FcγRIII(Val^158), fully glycosylated, Man5 glycans (receptor)” was run?
A: The Kd was 240 nM.

Q: And the Kd [2]?
A: Its Kd is 300 nM.

Q: What about the Kd [3] of the same substance?
A: The Kd was 1800 nM.

Q: And the Kd [4]?
A: The Kd was 280 nM.

Q: And the Kd [5]?
A: The Kd was 2300 nM.

Q: And the Kd [6]?
A: The Kd was 300 nM.

Q: What about the Kd [7] of the same substance?
A: The Kd was 80 nM.

Q: And the Kd [8]?
A: Its Kd is 530 nM.

Q: Which Kd [1] does the source give for “Mm FcγRIII(Val^158), fully glycosylated, complex glycans (receptor)” here?
A: Its Kd is 460 nM.

Q: What about the Kd [2] of the same substance?
A: Its Kd is 360 nM.

Q: What about the Kd [3] of the same substance?
A: The Kd was 2100 nM.

Q: And the Kd [4]?
A: The Kd was 410 nM.

Q: And the Kd [5]?
A: The Kd was 3200 nM.

Q: And the Kd [6]?
A: The Kd was 570 nM.

Q: What about the Kd [7] of the same substance?
A: The Kd was 90 nM.

Q: And the Kd [8]?
A: The Kd was 630 nM.

Q: Which Kd [1] does the source give for “Mm FcγRIII(Val^158), partial glycosylation (Asn^38 and Asn^169 glycans removed), Man5 glycans (receptor)” here?
A: Its Kd is 280 nM.

Q: What about the Kd [2] of the same substance?
A: The Kd was 10 nM.

Q: What about the Kd [3] of the same substance?
A: The Kd was 2200 nM.

Q: And the Kd [4]?
A: Its Kd is 290 nM.

Q: What about the Kd [5] of the same substance?
A: Its Kd is 4800 nM.

Q: And the Kd [6]?
A: The Kd was 2200 nM.

Q: And the Kd [7]?
A: Its Kd is 610 nM.

Q: What about the Kd [8] of the same substance?
A: The Kd was 850 nM.

Q: Which results are given for “Mm FcγRIII(Val^158), partial glycosylation (Asn^38 and Asn^169 glycans removed), complex glycans (receptor)”?
A: Kd [1]: 250 nM; Kd [2]: 30 nM; Kd [3]: 2600 nM; Kd [4]: 460 nM; Kd [5]: 4200 nM; Kd [6]: 3000 nM; Kd [7]: 1200 nM; Kd [8]: 1000 nM

From paper PMC9484259
